Experimental findings from paper PMC2722759 (Nature cell biology, 2008) are described below.

Common to all, as to test: SPR
Experiment [1] concerns the target Fc-tagged sFRP2 Fzl domain (mouse).
The target in experiment [2] is T1, FLAG-tagged BMP1 (human, UniProt P13497-2 23-730).
T1 sequence (looked up): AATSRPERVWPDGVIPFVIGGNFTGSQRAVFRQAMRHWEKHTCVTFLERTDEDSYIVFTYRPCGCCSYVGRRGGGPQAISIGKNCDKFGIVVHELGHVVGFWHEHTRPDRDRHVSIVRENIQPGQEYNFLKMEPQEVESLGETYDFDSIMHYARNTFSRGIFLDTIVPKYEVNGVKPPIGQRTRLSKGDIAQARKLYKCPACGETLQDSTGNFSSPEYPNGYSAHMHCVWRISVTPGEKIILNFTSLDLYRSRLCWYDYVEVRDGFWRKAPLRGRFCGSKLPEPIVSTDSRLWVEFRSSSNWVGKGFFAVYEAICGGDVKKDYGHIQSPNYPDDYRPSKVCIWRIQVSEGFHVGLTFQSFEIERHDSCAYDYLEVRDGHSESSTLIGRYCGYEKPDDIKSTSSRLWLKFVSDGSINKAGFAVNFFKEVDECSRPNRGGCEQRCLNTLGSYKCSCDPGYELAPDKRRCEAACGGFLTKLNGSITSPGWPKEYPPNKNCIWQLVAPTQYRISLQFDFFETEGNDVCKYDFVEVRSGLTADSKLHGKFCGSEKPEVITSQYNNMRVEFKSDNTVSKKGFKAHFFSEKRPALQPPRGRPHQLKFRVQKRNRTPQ

In experiment [3] the target is T1, FLAG-tagged BMP1. The source holds these as a separate data set.

Where two headings read alike, the source gives them in different places.

In turn, “FLAG-tagged BMP1 (from UniProt P13497-2 23-730) (enzyme)” returned a dissociation constant (Kd) in experiment [1] of 8.68 nM.

B1: His-tagged sFRP2 (natural protein, mouse, UniProt P97299 25-295, looked up)
chain: LFLFGQPDFSYKRSNCKPIPANLQLCHGIEYQNMRLPNLLGHETMKEVLEQAGAWIPLVMKQCHPDTKKFLCSLFAPVCLDDLDETIQPCHSLCVQVKDRCAPVMSAFGFPWPDMLECDRFPQDNDLCIPLASSDHLLPATEEAPKVCEACKTKNEDDNDIMETLCKNDFALKIKVKEITYINRDTKIILETKSKTIYKLNGVSERDLKKSVLWLKDSLQCTCEEMNDINAPYLVMGQKQGGELVITSVKRWQKGQREFKRISRSIRKLQC
Consider B1, for which the affinity with FLAG-tagged BMP1 [2], expressed as Kd, was 7.13 nM.

B2: full-length sFRP2-Fc (Fc fusion, mouse, UniProt P97299 25-295, looked up)
chain: LFLFGQPDFSYKRSNCKPIPANLQLCHGIEYQNMRLPNLLGHETMKEVLEQAGAWIPLVMKQCHPDTKKFLCSLFAPVCLDDLDETIQPCHSLCVQVKDRCAPVMSAFGFPWPDMLECDRFPQDNDLCIPLASSDHLLPATEEAPKVCEACKTKNEDDNDIMETLCKNDFALKIKVKEITYINRDTKIILETKSKTIYKLNGVSERDLKKSVLWLKDSLQCTCEEMNDINAPYLVMGQKQGGELVITSVKRWQKGQREFKRISRSIRKLQC
With B2, the Kd with FLAG-tagged BMP1 [3] is ~6.01 nM.
